What was measured:
[1] = target: Fc gamma RIIIA/CD16a, CF (FcγRIIIA(V158)) (R&D Systems); test: SPR
[2] = target: T1, FcγRIIB/C (CD32b/c) (FcγRIIB) (R&D Systems) (UniProt P31994 46-217); test: SPR
T1 chain: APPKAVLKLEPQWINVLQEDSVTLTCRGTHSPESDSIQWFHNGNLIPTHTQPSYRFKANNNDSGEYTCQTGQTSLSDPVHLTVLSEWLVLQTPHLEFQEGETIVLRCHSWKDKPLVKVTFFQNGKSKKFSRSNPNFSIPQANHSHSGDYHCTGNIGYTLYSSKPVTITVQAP

Sequence of Fc gamma RIIIA/CD16a, CF (FcγRIIIA(V158)) (R&D Systems) (chain, as listed by the source): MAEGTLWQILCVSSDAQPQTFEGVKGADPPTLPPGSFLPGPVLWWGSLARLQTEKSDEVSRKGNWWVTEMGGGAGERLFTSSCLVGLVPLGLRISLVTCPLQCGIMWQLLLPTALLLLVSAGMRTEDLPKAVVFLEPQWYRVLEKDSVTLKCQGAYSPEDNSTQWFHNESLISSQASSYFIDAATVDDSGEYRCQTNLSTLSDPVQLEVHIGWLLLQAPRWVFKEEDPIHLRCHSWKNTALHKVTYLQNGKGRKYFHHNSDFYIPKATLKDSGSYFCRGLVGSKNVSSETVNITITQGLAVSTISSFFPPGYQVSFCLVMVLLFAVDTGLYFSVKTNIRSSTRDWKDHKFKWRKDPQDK

B1: X2-K HM242-D3 (antibody)
chain 1: QVQLVQSGPEVKKPGASVKVVCKASGYTFTSYYIQWVRQVPGQGLEWMGWIYPGDGTTKYNEKFKGRVTMTIDTSTSTAYMELRSLRSDDTAVYYCASYYGSYFDYWGQGTLVTVSSASTKGPSVFPLAPSSKSTSGGTAALGCLVKDYFPEPVTVSWNSGALTSGVHTFPAVLQSSGLYSLSSVVTVPSSSLGTQTYICNVNHKPSNTKVDKKVEPKSCDKTHTCPPCPAPELLDGPSVFLFPPKPKDTLMISRTPEVTCVVVDVSDEDPEVKFNWYVDGVEVHNAKTKPREEQYNSTYRVVSVLTVLHQDWLNGKEYKCAVSNKALPAPIEKTISKAKGQPREPQVYTLPPSRDELTKNQVSLTCLVKGFYPSDIAVEWESNGQPENNYKTTPPVLDSDGSFFLYSKLTVDKSRWQQGNVFSCSVMHEALHNHYTQKSLSLSPGK
chain 2: not shown
B1 showed a Kd [1] of 4270 nM and a Kd [2] of 1250 nM.

B2: X4-K HM242-C3 (antibody)
chain 1: QVQLVQSGPEVKKPGASVKVVCKASGYTFTSYYIQWVKQRPGQGLEWIGWIYPGDGTTKYNEKFKGRVTMTIDKSTRTAYMELRSLRSDDTAVYYCASYYGSYFDYWGQGTLVTVSSASTKGPSVFPLAPSSKSTSGGTAALGCLVKDYFPEPVTVSWNSGALTSGVHTFPAVLQSSGLYSLSSVVTVPSSSLGTQTYICNVNHKPSNTKVDKKVEPKSCDKTHTCPPCPAPELLGGPDVFLFPPKPKDTLMISRTPEVTCVVVDVSDEDPEVKFNWYVDGVEVHNAKTKPREEQYNSTYRVVSVLTVLHQDWLNGKEYKCAVSNKAYPAPEEKTISKAKGQPREPQVYTLPPSRDELTKNQVSLTCLVKGFYPSDIAVEWESNGQPENNYKTTPPVLDSDGSFFLYSKLTVDKSRWQQGNVFSCSVMHEALHNHYTQKSLSLSPGK
chain 2: not shown
With B2 the Kd [1] was 143 nM and the Kd [2] was 606 nM.

B3: X3-KS HM242-C3 (antibody)
chain 1: QVQLVQSGPEVKKPGASVKVVCKASGYTFTSYYIQWVKQRPGQGLEWIGWIYPGDGTTKYNEKFKGRVTMTIDKSTRTAYMELRSLRSDDTAVYYCASYYGSYFDYWGQGTLVTVSSASTKGPSVFPLAPSSKSTSGGTAALGCLVKDYFPEPVTVSWNSGALTSGVHTFPAVLQSSGLYSLSSVVTVPSSSLGTQTYICNVNHKPSNTKVDKKVEPKSCDKTHTCPPCPAPELLGGPDVFLFPPKPKDTLMISRTPEVTCVVVDVGDEDPEVKFNWYVDGVEVHNAKTKPREEQYNSTYRVVSVLTVLHQDWLNGKEYKCAVSNKALPAPIEKTISKAKGQPREPQVYTLPPSRDELTKNQVSLTCLVKGFYPSDIAVEWESNGQPENNYKTTPPVLDSDGSFFLYSKLTVDKSRWQQGNVFSCSVMHEALHNHYTQKSLSLSPGK
chain 2: not shown
Binder B3 has a Kd [2] of 1660 nM.

B4: X3-KS HM242-D3 (antibody)
chain 1: QVQLVQSGPEVKKPGASVKVVCKASGYTFTSYYIQWVRQVPGQGLEWMGWIYPGDGTTKYNEKFKGRVTMTIDTSTSTAYMELRSLRSDDTAVYYCASYYGSYFDYWGQGTLVTVSSASTKGPSVFPLAPSSKSTSGGTAALGCLVKDYFPEPVTVSWNSGALTSGVHTFPAVLQSSGLYSLSSVVTVPSSSLGTQTYICNVNHKPSNTKVDKKVEPKSCDKTHTCPPCPAPELLGGPDVFLFPPKPKDTLMISRTPEVTCVVVDVGDEDPEVKFNWYVDGVEVHNAKTKPREEQYNSTYRVVSVLTVLHQDWLNGKEYKCAVSNKALPAPIEKTISKAKGQPREPQVYTLPPSRDELTKNQVSLTCLVKGFYPSDIAVEWESNGQPENNYKTTPPVLDSDGSFFLYSKLTVDKSRWQQGNVFSCSVMHEALHNHYTQKSLSLSPGK
chain 2: not shown
With B4 the Kd [2] was 2740 nM.

B5: X4-K HM242-D3 (antibody)
chain 1: QVQLVQSGPEVKKPGASVKVVCKASGYTFTSYYIQWVRQVPGQGLEWMGWIYPGDGTTKYNEKFKGRVTMTIDTSTSTAYMELRSLRSDDTAVYYCASYYGSYFDYWGQGTLVTVSSASTKGPSVFPLAPSSKSTSGGTAALGCLVKDYFPEPVTVSWNSGALTSGVHTFPAVLQSSGLYSLSSVVTVPSSSLGTQTYICNVNHKPSNTKVDKKVEPKSCDKTHTCPPCPAPELLGGPDVFLFPPKPKDTLMISRTPEVTCVVVDVSDEDPEVKFNWYVDGVEVHNAKTKPREEQYNSTYRVVSVLTVLHQDWLNGKEYKCAVSNKAYPAPEEKTISKAKGQPREPQVYTLPPSRDELTKNQVSLTCLVKGFYPSDIAVEWESNGQPENNYKTTPPVLDSDGSFFLYSKLTVDKSRWQQGNVFSCSVMHEALHNHYTQKSLSLSPGK
chain 2: not shown
B5 was tested, and the Kd [1] was 244 nM and the Kd [2] was 957 nM.

B6: X4-K HM297-H5 (antibody)
chain 1: QVQLVQSGPEVKKPGASVKIPCKASGYTFTDYNVDWVRQVPGQGLEWMGDIDPNNGGTIYNQKFKDRVTMTVDKSTRTAYMELRSLRSDDTAVYYCARWRGAMDYWGQGTLVTVSSASTKGPSVFPLAPSSKSTSGGTAALGCLVKDYFPEPVTVSWNSGALTSGVHTFPAVLQSSGLYSLSSVVTVPSSSLGTQTYICNVNHKPSNTKVDKKVEPKSCDKTHTCPPCPAPELLGGPDVFLFPPKPKDTLMISRTPEVTCVVVDVSDEDPEVKFNWYVDGVEVHNAKTKPREEQYNSTYRVVSVLTVLHQDWLNGKEYKCAVSNKAYPAPEEKTISKAKGQPREPQVYTLPPSRDELTKNQVSLTCLVKGFYPSDIAVEWESNGQPENNYKTTPPVLDSDGSFFLYSKLTVDKSRWQQGNVFSCSVMHEALHNHYTQKSLSLSPGK
chain 2: DIQMTQSPSSLSASVGDRVTITCRASQDIDNYLKWYQQKPDGTVKLLIYDTSRLHSGVPSRFSGSGSGTDYTLTISSLKQEDFATYYCQQGYTLPWTFGQGTKLEIKRTVAAPSVFIFPPSDEQLKSGTASVVCLLNNFYPREAKVQWKVDNALQSGNSQESVTEQDSKDSTYSLSSTLTLSKADYEKHKVYACEVTHQGLSSPVTKSFNRGEC
Work on B6 yielded a Kd [1] of 3030 nM and a Kd [2] of 1250 nM.

B7: X2-K HM297-H5 (antibody)
chain 1: QVQLVQSGPEVKKPGASVKIPCKASGYTFTDYNVDWVRQVPGQGLEWMGDIDPNNGGTIYNQKFKDRVTMTVDKSTRTAYMELRSLRSDDTAVYYCARWRGAMDYWGQGTLVTVSSASTKGPSVFPLAPSSKSTSGGTAALGCLVKDYFPEPVTVSWNSGALTSGVHTFPAVLQSSGLYSLSSVVTVPSSSLGTQTYICNVNHKPSNTKVDKKVEPKSCDKTHTCPPCPAPELLDGPSVFLFPPKPKDTLMISRTPEVTCVVVDVSDEDPEVKFNWYVDGVEVHNAKTKPREEQYNSTYRVVSVLTVLHQDWLNGKEYKCAVSNKALPAPIEKTISKAKGQPREPQVYTLPPSRDELTKNQVSLTCLVKGFYPSDIAVEWESNGQPENNYKTTPPVLDSDGSFFLYSKLTVDKSRWQQGNVFSCSVMHEALHNHYTQKSLSLSPGK
chain 2: DIQMTQSPSSLSASVGDRVTITCRASQDIDNYLKWYQQKPDGTVKLLIYDTSRLHSGVPSRFSGSGSGTDYTLTISSLKQEDFATYYCQQGYTLPWTFGQGTKLEIKRTVAAPSVFIFPPSDEQLKSGTASVVCLLNNFYPREAKVQWKVDNALQSGNSQESVTEQDSKDSTYSLSSTLTLSKADYEKHKVYACEVTHQGLSSPVTKSFNRGEC
For B7, the Kd [1] was 5220 nM and the Kd [2] was 1290 nM.

B8: X2-K HM242-C3 (antibody)
chain 1: QVQLVQSGPEVKKPGASVKVVCKASGYTFTSYYIQWVKQRPGQGLEWIGWIYPGDGTTKYNEKFKGRVTMTIDKSTRTAYMELRSLRSDDTAVYYCASYYGSYFDYWGQGTLVTVSSASTKGPSVFPLAPSSKSTSGGTAALGCLVKDYFPEPVTVSWNSGALTSGVHTFPAVLQSSGLYSLSSVVTVPSSSLGTQTYICNVNHKPSNTKVDKKVEPKSCDKTHTCPPCPAPELLDGPSVFLFPPKPKDTLMISRTPEVTCVVVDVSDEDPEVKFNWYVDGVEVHNAKTKPREEQYNSTYRVVSVLTVLHQDWLNGKEYKCAVSNKALPAPIEKTISKAKGQPREPQVYTLPPSRDELTKNQVSLTCLVKGFYPSDIAVEWESNGQPENNYKTTPPVLDSDGSFFLYSKLTVDKSRWQQGNVFSCSVMHEALHNHYTQKSLSLSPGK
chain 2: not shown
With B8 the Kd [2] was 1210 nM.

B9: X3-KS HM297-H5 (antibody)
chain 1: QVQLVQSGPEVKKPGASVKIPCKASGYTFTDYNVDWVRQVPGQGLEWMGDIDPNNGGTIYNQKFKDRVTMTVDKSTRTAYMELRSLRSDDTAVYYCARWRGAMDYWGQGTLVTVSSASTKGPSVFPLAPSSKSTSGGTAALGCLVKDYFPEPVTVSWNSGALTSGVHTFPAVLQSSGLYSLSSVVTVPSSSLGTQTYICNVNHKPSNTKVDKKVEPKSCDKTHTCPPCPAPELLGGPDVFLFPPKPKDTLMISRTPEVTCVVVDVGDEDPEVKFNWYVDGVEVHNAKTKPREEQYNSTYRVVSVLTVLHQDWLNGKEYKCAVSNKALPAPIEKTISKAKGQPREPQVYTLPPSRDELTKNQVSLTCLVKGFYPSDIAVEWESNGQPENNYKTTPPVLDSDGSFFLYSKLTVDKSRWQQGNVFSCSVMHEALHNHYTQKSLSLSPGK
chain 2: DIQMTQSPSSLSASVGDRVTITCRASQDIDNYLKWYQQKPDGTVKLLIYDTSRLHSGVPSRFSGSGSGTDYTLTISSLKQEDFATYYCQQGYTLPWTFGQGTKLEIKRTVAAPSVFIFPPSDEQLKSGTASVVCLLNNFYPREAKVQWKVDNALQSGNSQESVTEQDSKDSTYSLSSTLTLSKADYEKHKVYACEVTHQGLSSPVTKSFNRGEC
In the case of B9, the Kd [2] is reported as 1430 nM.

B10: X3-KS HM268-K8 (antibody)
chain 1: QVQLVQSGPEVKKPGASVKVVCKTSGYTFTSYYIQWLKQRPGQGLEWIGWIYFGDASTKYNEKFKGRVTMTADKSTSTAYMELRSLRSDDTAVYYCASYYGSYFDYWGQGTTVTVSSASTKGPSVFPLAPSSKSTSGGTAALGCLVKDYFPEPVTVSWNSGALTSGVHTFPAVLQSSGLYSLSSVVTVPSSSLGTQTYICNVNHKPSNTKVDKKVEPKSCDKTHTCPPCPAPELLGGPDVFLFPPKPKDTLMISRTPEVTCVVVDVGDEDPEVKFNWYVDGVEVHNAKTKPREEQYNSTYRVVSVLTVLHQDWLNGKEYKCAVSNKALPAPIEKTISKAKGQPREPQVYTLPPSRDELTKNQVSLTCLVKGFYPSDIAVEWESNGQPENNYKTTPPVLDSDGSFFLYSKLTVDKSRWQQGNVFSCSVMHEALHNHYTQKSLSLSPGK
chain 2: DIQMTQSPSSLSASVGDRVTITCRASQDISNYLNWYQQKPDGTVKLLIYSTSRLHSGVPSRFSGSGSGTDYTLTISSLQPEDFATYYCQQGSTLPFTFGQGTKLEIKRTVAAPSVFIFPPSDEQLKSGTASVVCLLNNFYPREAKVQWKVDNALQSGNSQESVTEQDSKDSTYSLSSTLTLSKADYEKHKVYACEVTHQGLSSPVTKSFNRGEC
In the case of B10, the Kd [2] is reported as 2540 nM.

— patent publication US20240317859A1 (published 2024)
